Test results taken from patent publication US20230250157A1.

B1: HSW-2 (antibody, V domains shown)
VH: QVQLQQSGPELVKPGASVKISCKASGYVFSTSWMSWVKQRPGEGPEWIGRIYPRDGHSSSTGKFKDKATLTADKSSNTAYIHLSSLTSEDSAVYFCARDYGYYYFDYWGQGTTLTVSS
VL: DIQMTQSPASLSASVGEAVTITCRLSENVYSFLAWYQQKQGKSPQLLVYRAKTLAEGVPSRFSGSGSGTQFSLKINSLQPEDFGTYYCQHHYGTPPTFGGGTKLEIK
B2: HSW-1 (antibody, V domains shown)
VH: QVQLQQPGAELVKPGTSMKLSCKASGYTFTSYWMHWVKQRPGQGLEWIGMIHPNSGSTKYNENFKSKATLTVDKSSSTAYMQFSSLTSEDSAVYYCVRSGSYYGTTYDYFDYWGQGTTLTVSS
VL: DIVLTQSPASLAVSLGQRATISCRASESVNIYGNSFMHWYQQKPGQPPKLLIFRASNLESGIPVRFSGSGSRTDFTLTINPVEADDVATYYCHQSNEDPFTFGSGTKLEIK

Target: sarbecoviruses tested (pseudovirus spikes)
Assay: cell-based or functional assay

Binder | pseudovirus neutralization IC50
B1 | > 10 µg/mL
B2 | > 10 µg/mL
